In US20240294618A1 (CENTIVAX, published 2024):
Several values for one entry are separate records, joined by “and”; a condition that tells them apart may be missing. Equal values may be shown once. Read-outs that look alike come from different tables or passages of the source.

What was measured:
[1] = target: T1, long-neurotoxin-mamba (dendroapsis) (alpha-elapitoxin-dpp2d), recombinant, Mamba-Avi-His (black mamba (Dendroaspis polylepsis), UniProt C0HJD7 1-72)
T1 sequence: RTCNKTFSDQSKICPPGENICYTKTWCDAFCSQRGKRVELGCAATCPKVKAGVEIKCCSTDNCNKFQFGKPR

[2] = target: T2, long-neurotoxin-taipan, recombinant, Taipan-Avi-His (coastal taipan (Oxyuranus scutatellus), UniProt A8HDK9 22-92)
T2 sequence: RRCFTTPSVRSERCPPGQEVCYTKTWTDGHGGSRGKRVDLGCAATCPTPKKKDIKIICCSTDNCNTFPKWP

[3] = target: T3, long-neurotoxin-cobra (naja) (alpha-neurotoxin), recombinant, Cobra-Avi-His (cape cobra (Naja nivea), UniProt P01390 1-71)
T3 sequence: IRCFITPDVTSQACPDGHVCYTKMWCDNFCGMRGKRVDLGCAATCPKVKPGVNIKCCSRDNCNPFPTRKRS

[4] = target: T1, long-neurotoxin-mamba (dendroapsis) …; assay: off-rate kinetics; platform not named
[5] = target: T2, long-neurotoxin-taipan, recombinant, …; assay: off-rate kinetics; platform not named
[6] = target: T2, long-neurotoxin-taipan, recombinant, …; remark: listed apart in the source
[7] = target: T4, long-neurotoxin-krait (bungarus) (alpha-bungarotoxin) (krait (Bungarus caeruleus), UniProt D2N116 3-76); assay: off-rate kinetics; platform not named
T4 construct: also called Krait LNX; long-neurotoxin from Krait
T4 sequence: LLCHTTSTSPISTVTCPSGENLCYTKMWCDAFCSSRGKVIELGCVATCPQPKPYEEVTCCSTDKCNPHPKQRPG

B1: SNEURO_P01_B11 (antibody, V domains shown)
VH: QVQLQESGGGLVQPGGSLRLSCAASGFTFSNFDMHWVRQSPGKGLEWVSGLDHSGGAHYAGSVKGRFTISREDAKNSLDLQMNNLRVDDTAVYFCVRGTLYHYTSGSYYSDAFDIWGQGTLVTVSS
VL: DIVMTQSPSSLSASVGDRVTITCRASQGISDNLNWYQQKPGKAPKLLIYAASTLQSGVPSRLSGSGSGTDFTLTISSLQPEDFATYYCQQANSFPLTFGGGTKVEIKR
With B1 the Kd [1] was 2.1 nM, the koff [1] was 0.00038 s⁻¹ and the kon [1] was 180000 M⁻¹ s⁻¹. The Kd [2] was 35 nM, the koff [2] was 0.0052 s⁻¹ and the kon [2] was 150000 M⁻¹ s⁻¹. The Kd [3] was 0.41 nM, the koff [3] was 9e-05 s⁻¹ and the kon [3] was 220000 M⁻¹ s⁻¹.

B2: SNEURO_P01_D09 FW germlined (antibody, V domains shown)
VH: EVQLVESGGGLVQPGGSLRLSCAASGFTFSNFDMHWVRQATGKGLEWVSGLDHSGGAHYAGSVKGRFTISRENAKNSLYLQMNSLRAGDTAVYYCVRGTLYHYTSGSYYSDAFDIWGQGTLVTVSS
VL: DIQMTQSPSSLSASVGDRVTITCQASQDISNYLNWYQQKPGKAPKLLIYAASSLESGVPSRFSGSGSGTDFTLTISSLQPEDFATYYCQQANSFPYTFGQGTKVEIK
B2 was tested, and the koff [4] was 0.000304 s⁻¹ and the koff [5] was 0.000366 s⁻¹.

B3: SNEURO_P01_D09 (antibody, V domains shown)
VH: EVQLVESGGGFVQPGGSLRLSCAASGFTFSNFDMHWVRQSPGKGLEWVSGLDHSGGAHYAGSVKGRFTISREDAKNSLDLQMNNLRVDDTAVYFCVRGTLYHYTSGSYYSDAFDIWGQGTLVTVSS
VL: EIVLTQSPSSLSASVGDRVTITCQASQDISNYLNWYQQKPGKAPKLLIYAASSLESGVPSRFSGSGSGTDFTLTISSQQPEDFATYYCQQANSFPYTFGQGTKVEIKR
In the case of B3, the Kd [2] is reported as 1.5 nM and the Kd [6] is reported as 0.49 nM and 0.96 nM.

B4: SNEURO_P01_D09 VH germlined (antibody, V domains shown)
VH: EVQLVESGGGLVQPGGSLRLSCAASGFTFSNFDMHWVRQATGKGLEWVSGLDHSGGAHYAGSVKGRFTISRENAKNSLYLQMNSLRAGDTAVYYCVRGTLYHYTSGSYYSDAFDIWGQGTLVTVSS
VL: EIVLTQSPSSLSASVGDRVTITCQASQDISNYLNWYQQKPGKAPKLLIYAASSLESGVPSRFSGSGSGTDFTLTISSQQPEDFATYYCQQANSFPYTFGQGTKVEIK
Binder B4 has a koff [4] of 8.54e-05 s⁻¹ and a koff [5] of 0.000488 s⁻¹.

B5: SNEURO_P01_D09 VK L3 NS->NT (antibody, V domains shown)
VH: EVQLVESGGGFVQPGGSLRLSCAASGFTFSNFDMHWVRQSPGKGLEWVSGLDHSGGAHYAGSVKGRFTISREDAKNSLDLQMNNLRVDDTAVYFCVRGTLYHYTSGSYYSDAFDIWGQGTLVTVSS
VL: EIVLTQSPSSLSASVGDRVTITCQASQDISNYLNWYQQKPGKAPKLLIYAASSLESGVPSRFSGSGSGTDFTLTISSQQPEDFATYYCQQANTFPYTFGQGTKVEIKR
B5 showed a koff [5] of 0.000769 s⁻¹.

B6: SNEURO_P01_D09 VK L3 NS->QS (antibody, V domains shown)
VH: EVQLVESGGGFVQPGGSLRLSCAASGFTFSNFDMHWVRQSPGKGLEWVSGLDHSGGAHYAGSVKGRFTISREDAKNSLDLQMNNLRVDDTAVYFCVRGTLYHYTSGSYYSDAFDIWGQGTLVTVSS
VL: EIVLTQSPSSLSASVGDRVTITCQASQDISNYLNWYQQKPGKAPKLLIYAASSLESGVPSRFSGSGSGTDFTLTISSQQPEDFATYYCQQAQSFPYTFGQGTKVEIKR
B6 was tested, and the koff [5] was 0.000304 s⁻¹.

B7: SNEURO_P01_D09 VK germlined (antibody, V domains shown)
VH: EVQLVESGGGFVQPGGSLRLSCAASGFTFSNFDMHWVRQSPGKGLEWVSGLDHSGGAHYAGSVKGRFTISREDAKNSLDLQMNNLRVDDTAVYFCVRGTLYHYTSGSYYSDAFDIWGQGTLVTVSS
VL: DIQMTQSPSSLSASVGDRVTITCQASQDISNYLNWYQQKPGKAPKLLIYAASSLESGVPSRFSGSGSGTDFTLTISSLQPEDFATYYCQQANSFPYTFGQGTKVEIK
Work on B7 yielded a koff [7] of 5.59e-05 s⁻¹, a koff [4] of 6.95e-05 s⁻¹ and a koff [5] of 0.000392 s⁻¹.
